The values that follow come from the supplement of paper PMC9170038.

This series relates to MS2 coat protein. The experiment in a line: apparent KD of MS2 coat protein; designed switch direction (-1 OFF switch, 1 ON switch): -1; higher = weaker reporter binding. In short, it runs like this:
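Apparent KD, taken as the median over clusters for each design, was obtained by curve-fitting normalised cluster fluorescence. Designed RNA switches had been transcribed on Illumina chips by stalled E. coli RNA polymerase and titrated with SNAP-549-labelled MS2 coat protein, doubling from 0.7 or 1.5 nM to 3 µM.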

[1] abbreviates: Eterna round: R95, input ligand: microRNA oligo, concentration not stated.
The mark [2] stands for this setting: Eterna round: R95, input ligand: FMN 200 uM.
The mark [3] stands for this setting: Eterna round: R95, input ligand: none.
[4] abbreviates: input ligand: microRNA oligo, concentration not stated.

As for “AAUUCACAUGAGGAUCACCCAUGUCAGGAUAUGGUUUCGCGGGUUUCGGUGCGUGAGGCCAGAAGGGACAGCUA (puzzle: Exclusion 1)”, the “apparent KD of MS2 coat protein” value under setting [1] amounted to 49.2 nM.
Take “AAUUCGAGAGGAUAUACAGGUGAUAUGUAGAAGCCUCGAGCACAUGAGGAUCACCCAUGUAGAAGGCUCAUAUA [EX2 A.11] (Eterna round: R97, puzzle: Exclusion 2)”: the “apparent KD of MS2 coat protein” value (input ligand: FMN 200 uM) was found to be 262 nM and the “apparent KD of MS2 coat protein” value (input ligand: none) amounted to 29.6 nM.
As to “AAUUUACAUGAGGAUCACCCAUGUCAGGAUAUGGUUUUAUUUUUUUCUUUUUUUGAUUCCAGAAGGGACAGUUA (puzzle: Exclusion 1)”, under setting [1], the “apparent KD of MS2 coat protein” value turned out to be 91.5 nM.
On to “AAUUUACAUGAGGAUCACCCAUGUGAGGAUAUGAUACUAUGUACUUCGGUACAUAGUAUCAGAAGGCAUGUGGA [Ex1-3: 91] (puzzle: Exclusion 1)”, for which, under setting [1], the “apparent KD of MS2 coat protein” value was determined as 115 nM.
Take “AAUUUACAUGAGGAUCACCCAUGUGAGGAUAUGGAUUCGCUGGCCGUAGCCAGUGGAUCCAGAAGGCGCGUGAU [JL-ex1-4.28] (Eterna round: R97, puzzle: Exclusion 1)”: the “apparent KD of MS2 coat protein” value came out at 182 nM (input ligand: FMN 200 uM) and 98.2 nM (input ligand: none).
As to “AAUUUGUGAGGAUAUCCAAUAUAUGACAUGAGGAUCACCCAUGUUUCCACUCGUACCUCCGGAGAAGGCACUGCAA [Ex5 #38] (Eterna round: R97, puzzle: Exclusion 5)”, the “apparent KD of MS2 coat protein” value was 21.4 nM (input ligand: FMN 200 uM) and 23.6 nM (input ligand: none).
Consider “ACAAGCUCUUUGCAUCUUAGUUUUGUUGCUUCGUAUGUAACAUGAGGAUCACCCAUGUAAGACUGAUGUCGUCUUUU [JR_SV3TOV2_Sub087] (puzzle: Sensor v3, turn-off variant 2)”, for which the “apparent KD of MS2 coat protein” value was determined as 43.8 nM under setting [2], 30 nM under setting [1] and 48.2 nM under setting [3].
As to “ACAAGCUUAAAAAUCCUAAACAUGAGGAUCACCCAUGUUCGUCUUAUAAAAAUAAAAAUAAAAAACAAAAAAUAAAA [Sensor V2: 71] (Eterna round: R96, puzzle: Sensor v2, turn-off variant)”, the “apparent KD of MS2 coat protein” value reads like this: (input ligand: FMN 200 uM) 39 nM; under setting [4], 228 nM; (input ligand: none) 39.3 nM.
On to “ACAAGCUUUUAGAUUUUCAACAUGAGGAUCACCCAUGUUCGUCUUAUGCUCGGGCUUGGGCGGUGUCCGGGUUUGGG [JL TOV1 3.78 sellena mod] (Eterna round: R97, puzzle: Sensor, turn-off variant 1)”, for which the “apparent KD of MS2 coat protein” value was determined as 37.1 nM (input ligand: FMN 200 uM) and 39.2 nM (input ligand: none).
In the case of “ACAAGCUUUUUGUUCGUCUUAUACACUCCUAAGAGGACAACAUGAGGAUCACCCAUGUAACAAAGACGAACUCAUGU [Sesor Array 10 - Jieux - Sensor v3, turn-off variant 2] (puzzle: Sensor v3, turn-off variant 2)”, the “apparent KD of MS2 coat protein” value was determined as 14.3 nM under setting [2], 96.3 nM under setting [1] and 11.4 nM under setting [3].
On to “ACACGGCGAGGAUAUACAUGAGGAUCACCCAUGUGUCGGCCGGUACGGUAGCACUAGUGUAGAAGGCGCAUUGG [EX3 #38] (Eterna round: R97, puzzle: Exclusion 3)”, for which the “apparent KD of MS2 coat protein” value was found to be 28.1 nM (input ligand: FMN 200 uM) and 31.1 nM (input ligand: none).
For “ACACUGCGAGGAUAUACAUGAGGAUCACCCAUGUAUCGGUAGUCAAGGUUAAUUUAAGGUAGAAGGCGCGUAUU [JR_Ex3_Sub007] (Eterna round: R97, puzzle: Exclusion 3)”, in that order: 26.4 nM and 24 nM.
Regarding “ACAGUUCUGCAAGGAUAUCGUCCUAGUUUGUUUCGAGAAGGUGCUUUUGUUUUUUCUUUGUGUUGACAUGAGGAUCACCCAUGU [JR_ExcNG1_Sub052] (Eterna round: R96, puzzle: Exclusion NG 1)”, the “apparent KD of MS2 coat protein” value (input ligand: FMN 200 uM) came to 20.3 nM, the “apparent KD of MS2 coat protein” value under setting [4] was determined as 20.6 nM and the “apparent KD of MS2 coat protein” value (input ligand: none) is 28.7 nM.
Consider “ACAGUUCUGCAAGGAUAUCGUUCUAGUUUAGUACGAGAAGGUGCUUUAGUUUUUUCUUUGUGUUGACAUGAGGAUCACCCAUGU [JR_ExcNG1_Sub054] (Eterna round: R96, puzzle: Exclusion NG 1)”, for which the “apparent KD of MS2 coat protein” value under setting [4] stood at 17.5 nM.
As to “ACAUAGGUAGGAUAUCUAAGUUGAUACAUGAGGAUCACCCAUGUGUUACUCAAGAUCUACAGAGAAGGGCCUGAGG [Eternabot (L2) Solution 93] (Eterna round: R97, puzzle: Exclusion 5)”, the “apparent KD of MS2 coat protein” value runs as follows: (input ligand: FMN 200 uM) 19.7 nM; (input ligand: none) 15.3 nM.
On to “ACAUGAGGAUCACCCAUGUAAACAUAAUGGCUCAUGUAGAGUCAGGAUAUGCGUGGCUAACAAUCGCAGAAGGGACAAGACUGG [Deportation 29 - Jieux - Exclusion NG 3] (Eterna round: R96, puzzle: Exclusion NG 3)”, for which the “apparent KD of MS2 coat protein” value was 22.1 nM (input ligand: FMN 200 uM), 20.2 nM under setting [4] and 24.5 nM (input ligand: none).
Turning to “ACAUGAGGAUCACCCAUGUACAGGGUUUAGUUUCAUCGUUUGAAGGAUAUACACCGUUAGUUGUCGUAGAAGGUCACAGAUUGG [JR_ExcNG3_Sub009] (Eterna round: R96, puzzle: Exclusion NG 3)”, the “apparent KD of MS2 coat protein” value reads like this: (input ligand: FMN 200 uM) 153 nM; under setting [4], 68.2 nM; (input ligand: none) 155 nM.
For “ACAUGAGGAUCACCCAUGUCCGGCUGGUCCGUCUCGGCUGUCGAGGAUAUAGCUCGGUGUCCGCGCUAGAAGGUGGGAGCUGGU [Aenatbe mod 68] (Eterna round: R96, puzzle: Exclusion NG 3)”, the “apparent KD of MS2 coat protein” value is 150 nM (input ligand: FMN 200 uM), 93.3 nM under setting [4] and 135 nM (input ligand: none).
For “ACAUGAGGAUCACCCAUGUCCGGCUGGUCCGUUUCGGCUGUCGAGGAUAUAGUUCGGUGUUCGCGCUAGAAGGCGGGAGCUGGC [Aenatbe mod 60] (Eterna round: R96, puzzle: Exclusion NG 3)”, the “apparent KD of MS2 coat protein” value was found to be 206 nM (input ligand: FMN 200 uM), 68.7 nM under setting [4] and 114 nM (input ligand: none).
Regarding “ACAUGAGGAUCACCCAUGUCCGGCUGGUCUGUUCCGGCUGUCGAGGAUAUAGUUCGGUGUUCGCGCUAGAAGGCGGGAGCUGGA [Aenatbe mod 52] (Eterna round: R96, puzzle: Exclusion NG 3)”, the “apparent KD of MS2 coat protein” value was determined as 150 nM (input ligand: FMN 200 uM), 104 nM under setting [4] and 123 nM (input ligand: none).
With “ACAUGAGGAUCACCCAUGUCCGGCUGGUCUGUUUCGGCUGUCGAGGAUAUAGUUCGGUGUUCGCGCUAGAAGGCGGGAGCUGGC [Aenatbe mod 59] (Eterna round: R96, puzzle: Exclusion NG 3)”, the “apparent KD of MS2 coat protein” value (input ligand: FMN 200 uM) came to 111 nM, the “apparent KD of MS2 coat protein” value under setting [4] came to 56.5 nM and the “apparent KD of MS2 coat protein” value (input ligand: none) amounted to 82.4 nM.
For “ACAUGAGGAUCACCCAUGUCCGUCUGGUCUGUCUCGGCUGUCGAGGAUAUAGCCCGGUAUCCGCGCUAGAAGGUGGGAGUCGGC [Aenatbe mod 98] (Eterna round: R96, puzzle: Exclusion NG 3)”, in that order: 31.4 nM, 28.9 nM and 37.3 nM.
In the case of “ACAUGAGGAUCACCCAUGUGAAAACAAUGGCUGACUUAGAGAUAGGAUAUAUGUGCAUAUCAAACAUAGAAGGGUCAUUACUGG [Deportation 89 - Jieux - Exclusion NG 3] (Eterna round: R96, puzzle: Exclusion NG 3)”, the “apparent KD of MS2 coat protein” value (input ligand: FMN 200 uM) stood at 37.9 nM, the “apparent KD of MS2 coat protein” value under setting [4] turned out to be 34.5 nM and the “apparent KD of MS2 coat protein” value (input ligand: none) came out at 39.3 nM.
On to “ACAUGAGGAUCACCCAUGUGAAAACAAUGGCUGACUUUGAGAUAGGAUAUUGGUGCAUAUCAAACCAAGAAGGGUCAUUACUGG [Deportation 92 - Jieux - Exclusion NG 3] (Eterna round: R96, puzzle: Exclusion NG 3)”, for which the “apparent KD of MS2 coat protein” value runs as follows: (input ligand: FMN 200 uM) 37.5 nM; under setting [4], 32.8 nM; (input ligand: none) 48.2 nM.
For “ACAUGAGGAUCACCCAUGUGACCACGAUGGCUGAUGUAGAGCUAGGAUAUGAGUGAAUAUCUAUCUCAGAAGGAGCUUGACUGG [Deportation 49 - Jieux - Exclusion NG 3] (Eterna round: R96, puzzle: Exclusion NG 3)”, in that order: 25.7 nM, 16.4 nM and 26.2 nM.
In the case of “ACAUGAGGAUCACCCAUGUUAUGUUGGGUACUAAAUUAUUCGUAGGAUAUCGAAGCUAGUUUGUGCGAGAAGGACGCAUUUUUU [JR_ExcNG3_Sub058] (Eterna round: R96, puzzle: Exclusion NG 3)”, the “apparent KD of MS2 coat protein” value came to 147 nM (input ligand: FMN 200 uM), 176 nM under setting [4] and 201 nM (input ligand: none).
Regarding “ACAUGUAAUGUAGGAUAUUUUACACAUGAGGAUCACCCAUGUGACCGGAGGCUUUACUAUGAGUAAAAGAAGGGUAUGUACAUG [Ex NG2 #61] (Eterna round: R96, puzzle: Exclusion NG 2)”, the “apparent KD of MS2 coat protein” value reads like this: (input ligand: FMN 200 uM) 68.5 nM; under setting [4], 33.1 nM; (input ligand: none) 45.8 nM.
For “ACAUGUCAUCGAGGAUAUUGGACACAUGAGGAUCACCCAUGUACCCGGAGGCUUUACUAUGAGUUCGAGAAGGCGAUGUACAUG [Ex NG2 #73] (Eterna round: R96, puzzle: Exclusion NG 2)”, in that order: 83.7 nM, 42.4 nM and 54.6 nM.
With “ACAUGUCAUCGAGGAUAUUGUACACAUGAGGAUCACCCAUGUACUCGGUUGCUCUAGCAUGAGUUCGAGAAGGCGAUGUACAUU [Ex NG2 #81] (Eterna round: R96, puzzle: Exclusion NG 2)”, the “apparent KD of MS2 coat protein” value is, setting by setting: (input ligand: FMN 200 uM) 178 nM; under setting [4], 28.9 nM; (input ligand: none) 38.4 nM.
